In publication doi:10.1101/2022.12.21.521443 (2022) one finds Kd data, which are given here for 1 molecule.

This assay addresses S. cerevisiae Pbs2 target peptide (S. cerevisiae, UniProt P08018).

Sequence of S. cerevisiae Pbs2 target peptide (P08018 whole entry): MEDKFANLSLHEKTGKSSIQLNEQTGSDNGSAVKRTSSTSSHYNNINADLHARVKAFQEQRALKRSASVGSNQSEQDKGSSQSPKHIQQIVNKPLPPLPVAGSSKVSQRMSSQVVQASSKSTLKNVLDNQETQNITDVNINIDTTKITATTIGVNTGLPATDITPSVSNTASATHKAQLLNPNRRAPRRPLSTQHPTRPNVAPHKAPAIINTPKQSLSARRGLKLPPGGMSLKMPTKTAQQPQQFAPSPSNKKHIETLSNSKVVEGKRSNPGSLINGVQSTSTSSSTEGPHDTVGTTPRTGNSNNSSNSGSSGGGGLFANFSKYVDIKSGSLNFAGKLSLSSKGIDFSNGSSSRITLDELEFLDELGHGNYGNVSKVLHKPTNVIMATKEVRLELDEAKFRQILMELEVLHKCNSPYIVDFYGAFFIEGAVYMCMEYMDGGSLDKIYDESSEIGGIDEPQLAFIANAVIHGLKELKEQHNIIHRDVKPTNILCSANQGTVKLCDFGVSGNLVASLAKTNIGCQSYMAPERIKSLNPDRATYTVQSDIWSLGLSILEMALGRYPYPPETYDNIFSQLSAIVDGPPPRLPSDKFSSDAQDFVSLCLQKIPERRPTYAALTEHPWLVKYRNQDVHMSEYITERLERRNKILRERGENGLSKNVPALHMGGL

B1: wild-type S. cerevisiae Sho1 SH3 domain (domain or fragment)
chain: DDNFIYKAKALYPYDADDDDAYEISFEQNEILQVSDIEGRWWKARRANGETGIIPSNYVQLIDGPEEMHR
Molecule B1 displayed a Kd of 3000 nM. This counts as single-digit micromolar.
